Data taken from the Human Domainome abundance scans (Beltran et al. 2025).
± gives the uncertainty stated by the source.

B1: CD2-associated protein, residues 1 to 59; numbered along this chain, Q9Y5K6 (parent)
chain: MVDYIVEYDYDAVHDDELTIRVGEIIRNVKKLQEEGWLEGELNGRRGMFPDNFVKEIKR

Variants of: B1
Assay: abundance fitness (aPCA) (normalised: wild type 0, dead -1); higher = more abundant; growth selection in yeast, the domain comes from the species named
Conditions: Homo sapiens

Y8S and Y8Q are within error of each other in abundance fitness: 0.013 ± 0.078 for the first, 0.04 ± 0.12 for the second.

N52R and N52P are within error of each other in abundance fitness: 0.028 ± 0.094 for the first, -0.065 ± 0.08 for the second.

N52C and N52H are within error of each other in abundance fitness: -0.041 ± 0.17 for the first, -0.284 ± 0.13 for the second.

N52I and N52K are within error of each other in abundance fitness: -0.141 ± 0.18 for the first, 0.071 ± 0.096 for the second.

N52Q and N52T are within error of each other in abundance fitness: -0.127 ± 0.13 for the first, -0.05 ± 0.11 for the second.

N52S and M48R are within error of each other in abundance fitness: 0.107 ± 0.08 for the first, 0.071 ± 0.062 for the second.

M48T and M48S are within error of each other in abundance fitness: 0.035 ± 0.094 for the first, 0.048 ± 0.083 for the second.

D51I and D51S are within error of each other in abundance fitness: 0.092 ± 0.11 for the first, -0.055 ± 0.057 for the second.

D51A and D51T are within error of each other in abundance fitness: 0.04 ± 0.059 for the first, 0.018 ± 0.071 for the second.

D51R and D51L are within error of each other in abundance fitness: -0.019 ± 0.064 for the first, -0.017 ± 0.067 for the second.

R27S and R27K are within error of each other in abundance fitness: -0.064 ± 0.057 for the first, -0.283 ± 0.35 for the second.

R27A and R27Q are within error of each other in abundance fitness: -0.228 ± 0.079 for the first, -0.147 ± 0.18 for the second.

R27V and R27E are within error of each other in abundance fitness: -0.096 ± 0.076 for the first, -0.081 ± 0.2 for the second.

Compared with R27F, N28V is lower in abundance fitness: -0.195 ± 0.057 for the first, -0.927 ± 0.14 for the second.

N28F and N28A are within error of each other in abundance fitness: -0.516 ± 0.12 for the first, -0.387 ± 0.093 for the second.

Going from N28D to N28E, the abundance fitness falls from 0.04 ± 0.091 to -0.185 ± 0.095.

E24N and E24T are within error of each other in abundance fitness: -0.412 ± 0.44 for the first, -0.449 ± 0.14 for the second.

First: E24W
Second: I57G
The abundance fitness of the first is lower: -0.764 ± 0.18 for the first, -0.157 ± 0.24 for the second.

I57C and I57P are within error of each other in abundance fitness: -0.25 ± 0.32 for the first, -0.326 ± 0.31 for the second.

P50S and P50N are within error of each other in abundance fitness: -0.329 ± 0.11 for the first, -0.261 ± 0.23 for the second.

V2M and V2R are within error of each other in abundance fitness: 0.087 ± 0.12 for the first, -0.084 ± 0.099 for the second.

V2H and V2T are within error of each other in abundance fitness: -0.486 ± 0.21 for the first, -0.095 ± 0.2 for the second.

V2L and V2A are within error of each other in abundance fitness: -0.087 ± 0.074 for the first, -0.074 ± 0.071 for the second.

V2K and V2F are within error of each other in abundance fitness: 0.086 ± 0.093 for the first, 0.008 ± 0.14 for the second.

V2Y and V22Y are within error of each other in abundance fitness: -0.166 ± 0.22 for the first, -0.301 ± 0.25 for the second.

Going from V22W to V22R, the abundance fitness rises from -0.703 ± 0.47 to -0.082 ± 0.12.

Compared with Y4Q, Y4V is higher in abundance fitness: -0.687 ± 0.39 for the first, -0.042 ± 0.13 for the second.

Y4D and Y4I are within error of each other in abundance fitness: -0.826 ± 0.26 for the first, -0.844 ± 0.28 for the second.

Y4R and Y4A are within error of each other in abundance fitness: -0.404 ± 0.091 for the first, -0.254 ± 0.15 for the second.

Compared with Y4C, Y4L is lower in abundance fitness: -0.173 ± 0.14 for the first, -0.476 ± 0.11 for the second.

E35M and E35G are within error of each other in abundance fitness: -0.189 ± 0.11 for the first, -0.071 ± 0.061 for the second.

E35S and E35Q are within error of each other in abundance fitness: -0.082 ± 0.068 for the first, -0.07 ± 0.092 for the second.

E35H and E35D are within error of each other in abundance fitness: -0.068 ± 0.14 for the first, -0.032 ± 0.084 for the second.

First: E35K
Second: E17F
The abundance fitness of the first is higher: 0.027 ± 0.11 for the first, -0.466 ± 0.33 for the second.

E17T and E17R are within error of each other in abundance fitness: -0.461 ± 0.27 for the first, -0.567 ± 0.14 for the second.

E17A and E17M are within error of each other in abundance fitness: -0.628 ± 0.13 for the first, -0.534 ± 0.18 for the second.

L42Y and I25P are within error of each other in abundance fitness: -0.839 ± 0.43 for the first, -0.845 ± 0.25 for the second.

I25E and I25W are within error of each other in abundance fitness: -0.516 ± 0.47 for the first, -0.519 ± 0.12 for the second.

I25K and I25Q are within error of each other in abundance fitness: -0.043 ± 0.2 for the first, -0.338 ± 0.13 for the second.

First: I25M
Second: I25A
The abundance fitness of the first is higher: -0.28 ± 0.15 for the first, -0.667 ± 0.22 for the second.

I25R and L32P are within error of each other in abundance fitness: -0.079 ± 0.071 for the first, -0.152 ± 0.13 for the second.

In the case of L32F, the abundance fitness is reported as 0.016 ± 0.19.
